{"source": "patent US20040077045A1", "about": "(LUDWIG INSTITUTE FOR CANCER RESEARCH, published 2004)", "key": {"[1]": {"target": "HLA-DRB4, purified (human)", "assay": "competition on purified HLA-DR (DRB4); labelled peptide not named; fluorescence assay"}, "[2]": {"target": "T1, HLA-DR7 (DRB1*0701), purified (human)", "T1 construct": "mature", "assay": "competition on purified HLA-DR (DRB1*0701); ratio to reference peptide YKL"}, "[3]": {"target": "T1, HLA-DR7 (DRB1*0701), purified", "assay": "competition on purified HLA-DR (DRB1*0701) against biotinylated YKL (10 nM, pH 5); fluorescence assay"}, "[4]": {"target": "T2, HLA-DR1 (DRB1*0101), purified (human)", "T2 construct": "mature", "assay": "competition on purified HLA-DR (DRB1*0101) against biotinylated HA 306-318 (1 nM, pH 6); fluorescence assay"}, "[5]": {"target": "HLA-DRB4, purified (human)", "assay": "competition on purified HLA-DR (DRB4); ratio to a reference peptide that is not named"}, "[6]": {"target": "T3, HLA-DRB5 (DRB5*0101), purified (human)", "T3 construct": "mature", "assay": "competition on purified HLA-DR (DRB5*0101); ratio to reference peptide HA 306-318"}, "[7]": {"target": "T4, HLA-DR15 (DRB1*1501), purified (human)", "T4 construct": "mature", "assay": "competition on purified HLA-DR (DRB1*1501); ratio to reference peptide A3 152-166"}, "[8]": {"target": "T5, HLA-DR11 (DRB1*1101), purified (human)", "T5 construct": "mature", "assay": "competition on purified HLA-DR (DRB1*1101) against biotinylated HA 306-318 (20 nM, pH 5); fluorescence assay"}, "[9]": {"target": "T6, HLA-DR4 (DRB1*0401), purified (human)", "T6 construct": "mature", "assay": "competition on purified HLA-DR (DRB1*0401); ratio to reference peptide HA 306-318"}, "[10]": {"target": "T3, HLA-DRB5 (DRB5*0101), purified", "assay": "competition on purified HLA-DR (DRB5*0101) against biotinylated HA 306-318 (5 nM, pH 5.5); fluorescence assay"}, "[11]": {"target": "T7, HLA-DR13 (DRB1*1301), purified (human)", "T7 construct": "mature", "assay": "competition on purified HLA-DR (DRB1*1301) against biotinylated B1 21-36 (200 nM, pH 4.5); fluorescence assay"}, "[12]": {"target": "T8, HLA-DRB3 (DRB3*0101), purified (human)", "T8 construct": "mature", "assay": "competition on purified HLA-DR (DRB3*0101) against biotinylated LOL 191-210 (5 nM, pH 5.5); fluorescence assay"}, "[13]": {"target": "T4, HLA-DR15 (DRB1*1501), purified", "assay": "competition on purified HLA-DR (DRB1*1501) against biotinylated A3 152-166 (10 nM, pH 4.5); fluorescence assay"}, "[14]": {"target": "T6, HLA-DR4 (DRB1*0401), purified", "assay": "competition on purified HLA-DR (DRB1*0401) against biotinylated HA 306-318 (30 nM, pH 6); fluorescence assay"}, "[15]": {"target": "T9, HLA-DR3 (DRB1*0301), purified (human)", "T9 construct": "mature", "assay": "competition on purified HLA-DR (DRB1*0301) against biotinylated MT 2-16 (100 nM, pH 4.5); fluorescence assay"}, "[16]": {"target": "T2, HLA-DR1 (DRB1*0101), purified", "assay": "competition on purified HLA-DR (DRB1*0101); ratio to reference peptide HA 306-318"}, "[17]": {"target": "T5, HLA-DR11 (DRB1*1101), purified", "assay": "competition on purified HLA-DR (DRB1*1101); ratio to reference peptide HA 306-318"}}, "data": [{"binder": "ACYEFLWGPRALVETS", "note": "[peptide MAGE-3 267-282 (ACYEFLWGPRALVETS)]", "values": [{"measurement": "IC50", "setting": "[1]", "value": 2800, "unit": "nM"}, {"measurement": "Ratios IC50 MAGE-3/IC50 reference", "setting": "[2]", "value": 120}, {"measurement": "IC50", "setting": "[3]", "value": 1200, "unit": "nM"}, {"measurement": "IC50", "setting": "[4]", "value": 0.4, "unit": "nM"}, {"measurement": "Ratios IC50 MAGE-3/IC50 reference", "setting": "[5]", "value": 70}, {"measurement": "Ratios IC50 MAGE-3/IC50 reference", "setting": "[6]", "value": 11}, {"measurement": "Ratios IC50 MAGE-3/IC50 reference", "setting": "[7]", "value": 15}, {"measurement": "IC50", "setting": "[8]", "value": 150, "unit": "nM"}, {"measurement": "Ratios IC50 MAGE-3/IC50 reference", "setting": "[9]", "value": 18}, {"measurement": "IC50", "setting": "[10]", "value": 170, "unit": "nM"}, {"measurement": "IC50", "setting": "[11]", "value": "> 10000", "unit": "nM"}, {"measurement": "IC50", "setting": "[12]", "value": "> 10000", "unit": "nM"}, {"measurement": "IC50", "setting": "[13]", "value": 220, "unit": "nM"}, {"measurement": "IC50", "setting": "[14]", "value": 730, "unit": "nM"}, {"measurement": "IC50", "setting": "[15]", "value": "> 10000", "unit": "nM"}, {"measurement": "Ratios IC50 MAGE-3/IC50 reference", "setting": "[16]", "value": 0.2}, {"measurement": "Ratios IC50 MAGE-3/IC50 reference", "setting": "[17]", "value": 6}]}]}
